Laboratory results from patent US20200123233A1.
Numbering of substitutions follows the chain as printed. Values joined by “and” are separate entries in the source; they are usually repeats but may differ in a detail not shown here. Equal values may be shown once.

B1: IV1 (yeast-produced NANOBODY (VHH sequence)) (VHH)
VHH: QVQLQESGGGLVETGGSLRLSCAASGRTFGGYALAWFRQAPGKGREFVAAVTWTSGTTNYAGSVKDRFTVSRDNAGNTMYLQMNSLRPEDTAVYICGAASGYRSPDRLSEPNWVNYWGQGTQVTVSS
B2: IV25 (yeast-produced NANOBODY (VHH sequence)) (VHH)
VHH: QVQLQQSGGGLVQSGGSLSLSCAASGITLNNRVVGWFRQAPGKEREFVGRIMWSVGDTFYARSVKGRFTISRDNAKNTMYLQMNALKPEDTAVYYCAAARDPDLYTGQYEYWGQGTQVTVSS
B3: IV37 (yeast-produced NANOBODY (VHH sequence)) (VHH)
VHH: QVQLQESGGGLVQAGDSLRLSCAAPGRSFSGGAMSWFRQVPGKEREFVAAIRWSGGGIRYADSVKGRFTISRDNAKNTFYLQMNSLKPEDTAVYYCAIDPRADLVATMTSIRYWGQGTQVTVSS
B4: IV29 (yeast-produced NANOBODY (VHH sequence)) (VHH)
VHH: QVQLQESGGGLVQAGGSLRLSCVASGRTLDNYAMGWFRQAPGAEREFVGAISANGEDTQYTESVQGRFTISKDNAKSTVYLDMNSLKPEDTAVYYCAADRKTLTYYTSRLRSRYEYWGQGTQVTVSS
B5: IV26 (yeast-produced NANOBODY (VHH sequence)) (VHH)
VHH: QVQLQESGGGLVRTGDSLRLSCAASGRTFNGYAMAWFRQAPGKGREFVAAVTWSSGTTNYAGSVKDRFTVSRDNANNTMYLQMNSLKPEDTAVYICGAASGYRSTDRLSDPAWTNYWGQGTQVTVSS
B6: IV5 (yeast-produced NANOBODY (VHH sequence)) (VHH)
VHH: QVQLQQSGGGLVQAGGSLRLSCAASGRTFSTTGMGWFRQAPGKEREFVAAFWWTGGQTFYADSVKGRFTISGDNAGNTVDLQMNSLKPEDTAVYACAAMSKPRNLWRTDSYDYWGQGTQVTVSS
B7: IV21 (yeast-produced NANOBODY (VHH sequence)) (VHH)
VHH: QVQLQQSGGGLVQAGGFLRLSCAASGRSFNTYAMGWFRQAPGKEREFVAGITRSGTATDYIDSVKGRFTISRDNARDTVYLQMNRLNPEDSAVYYCAAHANYDRMINSEYKYWGQGTQVTVSS
B8: LG213E6 (VHH)
VHH: EVQLVESGGGLVQAGASLRLSCAASGSTLSRYGVGWFRQAPGKERELVASVDWSGSRTYYADSVKGRFTISRDNAKNTGYLQMNSLKPDDTAVYYCAADSSVVPGIEKYDDWGLGTQVTVSS
B9: LG213H7 (VHH)
VHH: EVQLVESGGGLVQAGGSLRLSCAASGRTLSSYRMGWFRQAPGKEREFISTISWNGRSTYYADSVKGRFIFSEDNAKNTVYLQMNSLKPEDTAVYYCAAALIGGYYSDVDAWSYWGPGTQVTVSS
B10: LG214E8 (VHH)
VHH: EVQLVESGGGSVQAGGSLRLSCAASGGTFNPYVMAWFRQAPGNEREFVARIRWSGGDAYYDDSVKGRFAITRDAAKNTVHLQMNSLKPEDTAVYYCAAATYGYGSYTYGGSYDLWGQGTQVTVSS
B11: NC41 (VHH)
VHH: EVQLVESGGGLVQAGGSLSISCAASGGSLSNYVLGWFRQAPGKEREFVAAINWRGDITIGPPNVEGRFTISRDNAKNTGYLQMNSLAPDDTAVYYCGAGTPLNPGAYIYDWSYDYWGRGTQVTVSS
B12: NC41v03 (VHH)
VHH: B11 VHH with V5L, A14P, S19R, E44G, A75S, G79L, A87R, D89E, R118Q, Q121L
B13: NC41v06 (VHH)
VHH: EVQLLESGGGLVQPGGSLRLSCAASGGSLSNYVLGWFRQAPGKGREFVAAINWRDDITIGPPNVEGRFTISRDNAKNTLYLQMNSLRPEDTAVYYCGAGTPLNPGAYIYDWSYDYWGQGTLVTVSS
B14: NC41v18 (VHH)
VHH: B13 VHH with A75S
B15: LG192C6 (VHH)
VHH: EVQLVESGGGLVQAGGSLRLSCEASGRTERYQAMGWFRQAPGKEREFVAVVTRWSGARTVYADSVKGRFTISRDNAENTVYLQMNSLKPEDTAVYTCAADSTNRNRGAIYYTWAYDYWGQGTQVTVSS
B16: LG192H2 (VHH)
VHH: B15 VHH with E29F, R30S, Y31N, Q32Y, A57G, R106S, I109W, Y117H
B17: IV154 (VHH)
VHH: QVQLQESGGGLVQAGGSLRLSCAASGRPFSSAAMGWFRQAPGKEREFVSAISYTGDVTRYADSVKGRFTISRDNTRNTLTLEMNSLKPEDTAVYYCAARTYAGVRAHTYDYDYWGQGTQVTVSS
B18: IV131 (VHH)
VHH: QVQLQQSGGGLVQAGGSLRLSCAASGSGFSFNPMGWYRQAPGKQRELVASITSGGTTNYVDSVKGRFTISRGNAKNTVYLQMNSLKPEDTAVYYCAAEGPRRRGSTWYTDNYWGQGTQVTVSS
B19: IV144 (VHH)
VHH: QVQLQQSGGGLVQAGGSLRLSCAASGNIISFNPMGWHRQAPGKQRELVASITSGGSISYVDSVKGRFTISRDSAKNTIYLQMNSLKPEDTAVYFCAGEGPRRRGSTWYTDTYWGQGTQVTVSS
B20: IV146 (VHH)
VHH: QVQLQQSGGGLVQAGGSLRLSCAASGSSFSINAMGWYRQAPGKQRELVAAISSGGSANYADSVKGRFTISRDNAKNTVYLQMNSLKPEDTAVYYCNAGSRFNPFGSAYDYWGQGTQVTVSS
B21: IV133 (VHH)
VHH: QVQLQQSGGGLVQPGGSLRLSCAASSSGFSFNPMGWYRQAPGKQRELVATMTSGGTTNYADSVKGRFTISRDNAKTTVYLQMNSLKPEDTAVYYCNARGPRRATTGWITDDYWGQGTQVTVSS
B22: IV157 (VHH)
VHH: B21 VHH with S26R, G28D, F29I, M51I, T52S, S53N, R71Q, A97G, R102Y, I108Y
B23: IV156 (VHH)
VHH: B21 VHH with S26R, M51I, R71T, Y79F, A97G, A103G, T105A, I108F
B24: IV155 (VHH)
VHH: QVQLQESGGGLVQAGGSLRLSCAASGRSLSRYAMGWFRQAPGKEREFVATKTSGGVTYYGASVKGRFTISRDNAKNMVYLQMNSLNPEDTAIYYCAAGTDAIFKPWMLPDYWGQGTQVTVSG

Target: Recombinant his-tagged HA1 from H7N7 strain A/Chicken/Netherlands/01/03 (Abcam Cat. No. ab61286) (Influenza A virus A/Chicken/Netherlands/01/03 (H7N7))
Assay: not given

Binder	ELISA titer (NANOBODY concentration giving extinction 1) [ng/mL]
B1	62.2
B2	27.8
B3	31.4
B4	7.2
B5	80.6
B6	30.7
B7	69

Target: Rabies virus glycoprotein G, Challenge Virus Standard (CVS)-11 strain (Rabies virus, strain CVS-11 (genotype 1 Lyssavirus)) (UniProt O92284)
Assay: cell-based or functional assay

Binder	CVS-11 neutralizing antibody titer (RFFIT), IU/mg [IU/mg]	CVS-11 neutralizing antibody titer (RFFIT), IU/ml [IU/ml]	CVS-11 neutralizing antibody titer (RFFIT), IU/µM [IU/µM]	CVS-11 neutralizing antibody titer (RFFIT), nM IC50 [nM]
B8	170	112	2.54	13.7
B9	12.2	1.71	0.18	191
B10	9.37	4.87	0.14	249

Target: Rabies virus glycoprotein G, ERA strain (attenuated vaccine strain, ATCC VR332) (Rabies virus, ERA strain (genotype 1 lyssavirus)) (UniProt P03524)
Assay: cell-based or functional assay

Binder	ERA neutralizing antibody titer (RFFIT): EU/mg [EU/mg]	ERA neutralizing antibody titer (RFFIT): EU/ml [EU/ml]	ERA neutralizing antibody titer (RFFIT): EU/µM [EU/µM]	ERA neutralizing antibody titer (RFFIT): nM IC50 [nM]
B8	155	288	2.31	14.4
B9	87.4	12.2	1.3	25.6
B10	< 0.96	< 0.5	< 0.02	> 3870

Target: Rabies virus glycoprotein G, strain CVS-11 (ATCC VR 959) (Rabies virus, strain CVS-11 (genotype 1))
Assay: cell-based or functional assay

Binder	CVS neutralizing antibody titer: IU/mg	CVS neutralizing antibody titer: IU/ml	CVS neutralizing antibody titer: IU/µM	CVS neutralizing antibody titer: nM IC50
B8	65.8 IU/mg and 83.8 IU/mg and 98.3 IU/mg	98.6 IU/ml and 156 IU/ml and 183 IU/ml	0.98 IU/µM and 1.25 IU/µM and 1.47 IU/µM	33.6 nM and 23.7 nM and 20.2 nM
B9	30.1 IU/mg and 12.6 IU/mg	4.22 IU/ml and 1.76 IU/ml	0.45 IU/µM and 0.19 IU/µM	62.5 nM and 156 nM
B10	14.2 IU/mg and 10.1 IU/mg and 6.12 IU/mg	7.38 IU/ml and 5.26 IU/ml and 3.18 IU/ml	0.21 IU/µM and 0.15 IU/µM and 0.09 IU/µM	124 nM and 196 nM and 323 nM

Substrate: F protein of hRSV strain B-1 (human respiratory syncytial virus, strain B-1 (ATCC VR-1580)) (UniProt P13843)
Assay: cell-based or functional assay

Binder	Neutralization IC50 (nM), B-1 (first assay) [nM]	Neutralization IC50 (nM), B-1 (second assay) [nM]
B11	4710	3290
B12	1510	
B13	806	
B14	728	194

Substrate: F protein of hRSV strain Long (human respiratory syncytial virus, strain Long (ATCC VR-26)) (UniProt P12568)
Assay: cell-based or functional assay

Binder	Neutralization IC50 (nM), Long (first assay) [nM]	Neutralization IC50 (nM), Long (second assay) [nM]
B11	202	122
B12	255	
B13	111	
B14	116	98

Substrate: F protein of hRSV strain Long (human respiratory syncytial virus, strain Long) (UniProt P12568)
Assay: cell-based or functional assay

Binder	hRSV micro neutralization, strain Long on Hep2 cells [µM]
B15	> 3
B16	> 3

Target: recombinant his-tagged HA0 trimer from H5N1 strain A/Anhui/1/2005 (Abcam, Cat. No. ab53938) (influenza A virus A/Anhui/1/2005 (H5N1))
Assay: ELISA on recombinant haemagglutinin, detection with rabbit anti-NANOBODY serum

Binder	ELISA titer (NANOBODY concentration giving extinction 1) [ng/mL]
B17	> 10000
B18	36.8
B19	33.1
B20	162
B21	39.1
B22	30.6
B23	51.9
B24	> 10000

Target: recombinant his6-tagged haemagglutinin HA1, Abcam ab53875
Assay: as above

Binder	ELISA titer (NANOBODY concentration giving extinction 1) [ng/mL]
B17	> 10000
B18	32
B19	34.8
B20	62.9
B21	32.5
B22	9.9
B23	33
B24	> 10000
